These results are taken from patent publication US20210285024.

Data set [1] has as its system polymerized microtubules (MT).
For data set [2], the system named is tubulin purified from Spodoptera Frugiperda Sf9 cells (fully tyrosinated; used as purified tubulin or polymerised microtubules).
Data set [3] concerns tubulin dimers (TD).
Data set [4] relates to bacterially produced recombinant human tubulin alpha-1A chain.
Data set [5] deals with recombinant engineered tyrosinated telokin containing the C-terminal sequence of alpha tubulin.
recombinant engineered tyrosinated telokin containing the C-terminal sequence of alpha tubulin, sequence (chain, as listed by the source, change not shown): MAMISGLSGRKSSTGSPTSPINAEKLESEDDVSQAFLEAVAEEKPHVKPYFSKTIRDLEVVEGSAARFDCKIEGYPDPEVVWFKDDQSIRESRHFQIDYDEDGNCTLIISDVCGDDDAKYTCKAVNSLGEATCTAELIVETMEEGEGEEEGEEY
For data set [6], the system named is 8 amino acid peptide GEEEGEEY (last C-ter alpha-tubulin 1A/1B).
The subject of data set [7] is recombinant alpha tubulin produced in bacteria.

recombinant human Vasohibin-2 (VASH2), sequence (chain, as listed by the source): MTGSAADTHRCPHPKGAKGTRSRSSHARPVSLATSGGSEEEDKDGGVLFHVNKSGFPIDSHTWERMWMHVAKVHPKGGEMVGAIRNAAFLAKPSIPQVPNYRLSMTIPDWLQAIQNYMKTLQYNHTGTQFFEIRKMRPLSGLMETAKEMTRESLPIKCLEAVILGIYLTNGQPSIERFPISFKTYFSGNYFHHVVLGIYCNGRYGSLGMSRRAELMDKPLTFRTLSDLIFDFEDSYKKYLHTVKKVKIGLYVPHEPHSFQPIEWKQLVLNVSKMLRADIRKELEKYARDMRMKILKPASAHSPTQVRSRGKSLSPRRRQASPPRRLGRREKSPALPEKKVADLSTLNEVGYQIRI
recombinant human Vasohibin-1 (VASH1), sequence (chain, as listed by the source): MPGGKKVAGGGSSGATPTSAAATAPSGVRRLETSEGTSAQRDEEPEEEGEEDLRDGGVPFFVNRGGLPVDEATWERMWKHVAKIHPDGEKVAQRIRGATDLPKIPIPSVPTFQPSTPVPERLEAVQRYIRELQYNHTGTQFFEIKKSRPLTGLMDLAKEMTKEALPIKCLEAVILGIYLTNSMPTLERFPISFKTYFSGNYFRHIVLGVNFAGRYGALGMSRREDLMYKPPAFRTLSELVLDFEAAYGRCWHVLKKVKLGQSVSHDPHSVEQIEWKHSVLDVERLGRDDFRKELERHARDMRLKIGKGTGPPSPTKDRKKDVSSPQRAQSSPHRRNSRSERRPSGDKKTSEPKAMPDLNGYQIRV

Turning to recombinant human Vasohibin-2 (VASH2), the detyrosination entry in data set [1] was “Recombinant human VASH2 produced in bacteria detyrosinates polymerized microtubules (MT), tubulin dimers (TD) and recombinant alpha tubulin”; in data set [3], “Recombinant human VASH2 produced in bacteria detyrosinates polymerized microtubules (MT), tubulin dimers (TD) and recombinant alpha tubulin”; in data set [7], “Recombinant human VASH2 produced in bacteria detyrosinates polymerized microtubules (MT), tubulin dimers (TD) and recombinant alpha tubulin”. For the same substance, in data set [2], the “in vitro detyrosination assay (TCPase activity, immunoblot)” value is recorded as “VASH2 acted as an autonomous enzyme that did not require the small vasohibin binding protein as a chaperone to enzymatically be active”. The “free tyrosine release (tyrosinase colorimetric assay, OD305)” value in data set [4] is given as “Release of tyrosine by VASH2 could be observed (Sample D-FIG. 16.)”. Also, in data set [5], the detyrosination activity entry was “recombinant VASH2 protein showed detyrosination activity on polymerized microtubule, tubulin dimers, recombinant alpha tubulin, engineered Telokin protein containing C-terminal sequence of alpha tubulin and on synthetic peptides”. Also, in data set [6], the “detyrosination of the peptide (dot blot)” value is “Recombinant human VASH2 and catalytically dead (VASH2D) produced in bacteria detyrosinates a 8 amino acid peptide consisting of GEEEGEEY”.
Consider recombinant human Vasohibin-1 (VASH1), for which the detyrosination result in data set [1] is “VASH1 was much less effective on microtubules and tubulin dimers”; in data set [3], “VASH1 was much less effective on microtubules and tubulin dimers”; in data set [7], “almost inactive on recombinant alpha tubulin produced in bacteria”.
